Measured values published in publication PMC3543869.

Target: T1, recombinant rat apolipoprotein E (rat), P02650
T1 chain: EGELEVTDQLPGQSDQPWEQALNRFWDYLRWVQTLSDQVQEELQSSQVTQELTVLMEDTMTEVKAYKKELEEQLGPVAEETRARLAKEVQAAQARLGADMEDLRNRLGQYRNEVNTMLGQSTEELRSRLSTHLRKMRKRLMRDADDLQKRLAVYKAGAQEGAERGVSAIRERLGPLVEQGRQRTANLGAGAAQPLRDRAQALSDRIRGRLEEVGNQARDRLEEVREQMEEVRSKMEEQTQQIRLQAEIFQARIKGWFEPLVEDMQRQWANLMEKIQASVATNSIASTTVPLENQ
Assay: SEC
Settings: remark: other sources report otherwise

B1: recombinant rat apolipoprotein E, P02650 19-312 (natural protein)
chain: EGELEVTDQLPGQSDQPWEQALNRFWDYLRWVQTLSDQVQEELQSSQVTQELTVLMEDTMTEVKAYKKELEEQLGPVAEETRARLAKEVQAAQARLGADMEDLRNRLGQYRNEVNTMLGQSTEELRSRLSTHLRKMRKRLMRDADDLQKRLAVYKAGAQEGAERGVSAIRERLGPLVEQGRQRTANLGAGAAQPLRDRAQALSDRIRGRLEEVGNQARDRLEEVREQMEEVRSKMEEQTQQIRLQAEIFQARIKGWFEPLVEDMQRQWANLMEKIQASVATNSIASTTVPLENQ
stoichiometry N: 4
